Source: publication PMC4889915 (Nucleic Acids Research, 2016)

T1: AtTRB3-6xHis (Arabidopsis thaliana, UniProt Q9M2X3 1-295)
T1 sequence (looked up): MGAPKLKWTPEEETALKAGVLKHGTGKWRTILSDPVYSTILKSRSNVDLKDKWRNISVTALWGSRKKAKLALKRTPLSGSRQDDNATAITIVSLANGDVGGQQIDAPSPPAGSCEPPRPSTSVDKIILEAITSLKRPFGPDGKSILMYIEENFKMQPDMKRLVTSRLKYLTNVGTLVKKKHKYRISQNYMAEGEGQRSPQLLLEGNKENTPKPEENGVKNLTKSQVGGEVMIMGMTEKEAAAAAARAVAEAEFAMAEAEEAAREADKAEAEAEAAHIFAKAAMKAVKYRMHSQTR

T2: GST-HDA6 (Arabidopsis thaliana, UniProt Q9FML2 1-471)
T2 sequence (looked up): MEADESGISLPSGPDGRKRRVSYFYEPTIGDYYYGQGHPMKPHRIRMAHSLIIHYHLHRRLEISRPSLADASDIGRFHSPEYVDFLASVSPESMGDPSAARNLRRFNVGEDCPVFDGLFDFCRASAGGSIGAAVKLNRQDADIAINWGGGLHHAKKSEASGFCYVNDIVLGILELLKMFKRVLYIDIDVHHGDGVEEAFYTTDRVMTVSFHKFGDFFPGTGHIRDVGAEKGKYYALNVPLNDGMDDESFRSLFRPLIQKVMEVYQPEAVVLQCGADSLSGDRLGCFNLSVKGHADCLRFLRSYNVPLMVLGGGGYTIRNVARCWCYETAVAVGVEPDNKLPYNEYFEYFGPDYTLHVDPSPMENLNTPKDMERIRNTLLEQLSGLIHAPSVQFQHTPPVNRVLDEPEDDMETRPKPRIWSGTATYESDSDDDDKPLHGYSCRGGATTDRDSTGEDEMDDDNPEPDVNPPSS

B1: GST-HDT4 (full-length) (enzyme, Arabidopsis thaliana, UniProt Q9M4T3 1-203, looked up)
chain: MEFWGIEIKPGKPFKVIQKDGFMVHASQVTLGDVEKVKKDETFAVYVKIGDDENGFMIGNLSQKFPQFSIDLYLGHEFEISHNSTSSVYLIGYRTFDAFDELDEEIDSDSELDEYMEQQIAALPQNEINPEEDDESDSDEMGLDEDDDSSDEEDVEAEAPLKVAPPSKKMPNGAFEIAKGGKKNKSSGGKKRCPFPCGPSCKK
B2: AtTRB2-6xHis (natural protein, Arabidopsis thaliana, UniProt Q9FJW5 1-299, looked up)
chain: MGAPKQKWTPEEEAALKAGVLKHGTGKWRTILSDTEFSLILKSRSNVDLKDKWRNISVTALWGSRKKAKLALKRTPPGTKQDDNNTALTIVALTNDDERAKPTSPGGSGGGSPRTCASKRSITSLDKIIFEAITNLRELRGSDRTSIFLYIEENFKTPPNMKRHVAVRLKHLSSNGTLVKIKHKYRFSSNFIPAGARQKAPQLFLEGNNKKDPTKPEENGANSLTKFRVDGELYMIKGMTAQEAAEAAARAVAEAEFAITEAEQAAKEAERAEAEAEAAQIFAKAAMKALKFRIRNHPW

Legend:
Experiment in all cases: pull-down
[1] = target: T1, AtTRB3-6xHis
[2] = target: B2
[3] = target: T2, GST-HDA6

Row | binding result [1] | binding result [2] | binding result [3] | Binder
1 | binds | binds |  | B1
2 |  |  | binds | B2
